Data as given in PMC10567853, “USP1 promotes cholangiocarcinoma progression by deubiquitinating PARP1 to prevent its proteasomal degradation” (Cell Death & Disease, 2023).
Positions count from the first letter of the chain named.

B1: GST-USP1 (enzyme, UniProt O94782 1-785, looked up)
chain: MPGVIPSESNGLSRGSPSKKNRLSLKFFQKKETKRALDFTDSQENEEKASEYRASEIDQVVPAAQSSPINCEKRENLLPFVGLNNLGNTCYLNSILQVLYFCPGFKSGVKHLFNIISRKKEALKDEANQKDKGNCKEDSLASYELICSLQSLIISVEQLQASFLLNPEKYTDELATQPRRLLNTLRELNPMYEGYLQHDAQEVLQCILGNIQETCQLLKKEEVKNVAELPTKVEEIPHPKEEMNGINSIEMDSMRHSEDFKEKLPKGNGKRKSDTEFGNMKKKVKLSKEHQSLEENQRQTRSKRKATSDTLESPPKIIPKYISENESPRPSQKKSRVKINWLKSATKQPSILSKFCSLGKITTNQGVKGQSKENECDPEEDLGKCESDNTTNGCGLESPGNTVTPVNVNEVKPINKGEEQIGFELVEKLFQGQLVLRTRCLECESLTERREDFQDISVPVQEDELSKVEESSEISPEPKTEMKTLRWAISQFASVERIVGEDKYFCENCHHYTEAERSLLFDKMPEVITIHLKCFAASGLEFDCYGGGLSKINTPLLTPLKLSLEEWSTKPTNDSYGLFAVVMHSGITISSGHYTASVKVTDLNSLELDKGNFVVDQMCEIGKPEPLNEEEARGVVENYNDEEVSIRVGGNTQPSKVLNKKNVEAIGLLGGQKSKADYELYNKASNPDKVASTAFAENRNSETSDTTGTHESDRNKESSDQTGINISGFENKISYVVQSLKEYEGKWLLFDDSEVKVTEEKDFLNSLSPSTSPTSTPYLLFYKKL
notes: Coupled to glutathione-Sepharose beads in the pull-down; also called recombinant GST-USP1; source: E. coli BL21 (DE3), purified (GST-tag purification resin)
B2: GST-USP1 C90S (enzyme, UniProt O94782 1-785, looked up)
chain: B1 chain with C90S
notes: Coupled to glutathione-Sepharose beads in the pull-down; source: E. coli BL21 (DE3), purified (GST-tag purification resin)

Molecular target: T1, Myc-tagged full-length (FL) PARP1 (UniProt P09874 1-1014)
T1 construct: also called Myc-PARP1
Assay: pull-down; GST, GST-USP1 or GST-USP1 C90S coupled to glutathione-Sepharose beads, incubated with purified Myc-PARP1; 50 mM Tris-HCl, 200 mM NaCl, 1 mM EDTA, 1% NP-40, 1 mM DTT, 10 mM MgCl2, pH 8.0; 4 °C, 4 hours
Conditions: both partners purified

T1 sequence (P09874 whole entry): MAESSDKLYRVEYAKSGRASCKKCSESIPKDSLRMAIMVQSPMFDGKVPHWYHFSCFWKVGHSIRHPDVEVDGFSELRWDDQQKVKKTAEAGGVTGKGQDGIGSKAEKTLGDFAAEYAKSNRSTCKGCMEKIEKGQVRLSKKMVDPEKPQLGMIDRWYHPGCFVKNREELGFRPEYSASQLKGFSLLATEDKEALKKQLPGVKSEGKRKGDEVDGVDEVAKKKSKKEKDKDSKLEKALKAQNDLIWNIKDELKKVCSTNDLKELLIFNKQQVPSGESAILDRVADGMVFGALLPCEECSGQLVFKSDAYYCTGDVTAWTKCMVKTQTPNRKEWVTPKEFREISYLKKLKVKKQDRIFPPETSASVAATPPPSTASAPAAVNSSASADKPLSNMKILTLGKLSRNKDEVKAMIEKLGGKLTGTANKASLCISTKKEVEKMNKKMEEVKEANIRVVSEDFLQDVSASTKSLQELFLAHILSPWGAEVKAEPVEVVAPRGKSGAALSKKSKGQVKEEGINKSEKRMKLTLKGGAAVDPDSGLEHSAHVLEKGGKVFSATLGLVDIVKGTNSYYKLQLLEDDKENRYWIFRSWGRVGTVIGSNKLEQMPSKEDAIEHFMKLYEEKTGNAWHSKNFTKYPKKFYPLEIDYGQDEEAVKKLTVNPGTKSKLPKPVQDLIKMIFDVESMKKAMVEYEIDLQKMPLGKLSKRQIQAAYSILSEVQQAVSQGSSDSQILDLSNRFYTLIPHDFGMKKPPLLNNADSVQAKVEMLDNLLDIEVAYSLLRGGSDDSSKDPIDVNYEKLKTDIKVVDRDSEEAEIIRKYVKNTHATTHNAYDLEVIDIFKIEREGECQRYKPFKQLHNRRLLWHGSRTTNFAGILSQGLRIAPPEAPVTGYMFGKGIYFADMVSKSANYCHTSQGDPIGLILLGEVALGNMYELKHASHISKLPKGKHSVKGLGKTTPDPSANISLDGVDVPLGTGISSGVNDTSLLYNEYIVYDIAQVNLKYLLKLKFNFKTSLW

Binder	binding result
B1	binds
B2	binds
